Assay results published in patent US20030040042A1, “Recombinant fibroblast growth factors” (published 2003).
Positions count from the first letter of the chain named. Blank lines part the entries; values can stand above or below the molecule they belong to.

Key:
[1] = target: FGF receptor on Balb/c 3T3 cells; test: competition with [125I]-bFGF on Balb/c 3T3 cells, no heparin
[2] = target: FGF receptor on Balb/c 3T3 cells; test: competition with [125I]-bFGF on Balb/c 3T3 cells, 1 ug/ml heparin
[3] = target: FGF receptor on Balb/c 3T3 cells
[4] = target: FGF receptor on bovine adrenal cortex capillary endothelial (ACE) cells (bovine) (UniProt P12820)
[5] = target: T1, FGF receptor on bovine adrenal cortex capillary endothelial (ACE) cells (bovine, UniProt P12820); test: cell-based or functional assay
T1 sequence: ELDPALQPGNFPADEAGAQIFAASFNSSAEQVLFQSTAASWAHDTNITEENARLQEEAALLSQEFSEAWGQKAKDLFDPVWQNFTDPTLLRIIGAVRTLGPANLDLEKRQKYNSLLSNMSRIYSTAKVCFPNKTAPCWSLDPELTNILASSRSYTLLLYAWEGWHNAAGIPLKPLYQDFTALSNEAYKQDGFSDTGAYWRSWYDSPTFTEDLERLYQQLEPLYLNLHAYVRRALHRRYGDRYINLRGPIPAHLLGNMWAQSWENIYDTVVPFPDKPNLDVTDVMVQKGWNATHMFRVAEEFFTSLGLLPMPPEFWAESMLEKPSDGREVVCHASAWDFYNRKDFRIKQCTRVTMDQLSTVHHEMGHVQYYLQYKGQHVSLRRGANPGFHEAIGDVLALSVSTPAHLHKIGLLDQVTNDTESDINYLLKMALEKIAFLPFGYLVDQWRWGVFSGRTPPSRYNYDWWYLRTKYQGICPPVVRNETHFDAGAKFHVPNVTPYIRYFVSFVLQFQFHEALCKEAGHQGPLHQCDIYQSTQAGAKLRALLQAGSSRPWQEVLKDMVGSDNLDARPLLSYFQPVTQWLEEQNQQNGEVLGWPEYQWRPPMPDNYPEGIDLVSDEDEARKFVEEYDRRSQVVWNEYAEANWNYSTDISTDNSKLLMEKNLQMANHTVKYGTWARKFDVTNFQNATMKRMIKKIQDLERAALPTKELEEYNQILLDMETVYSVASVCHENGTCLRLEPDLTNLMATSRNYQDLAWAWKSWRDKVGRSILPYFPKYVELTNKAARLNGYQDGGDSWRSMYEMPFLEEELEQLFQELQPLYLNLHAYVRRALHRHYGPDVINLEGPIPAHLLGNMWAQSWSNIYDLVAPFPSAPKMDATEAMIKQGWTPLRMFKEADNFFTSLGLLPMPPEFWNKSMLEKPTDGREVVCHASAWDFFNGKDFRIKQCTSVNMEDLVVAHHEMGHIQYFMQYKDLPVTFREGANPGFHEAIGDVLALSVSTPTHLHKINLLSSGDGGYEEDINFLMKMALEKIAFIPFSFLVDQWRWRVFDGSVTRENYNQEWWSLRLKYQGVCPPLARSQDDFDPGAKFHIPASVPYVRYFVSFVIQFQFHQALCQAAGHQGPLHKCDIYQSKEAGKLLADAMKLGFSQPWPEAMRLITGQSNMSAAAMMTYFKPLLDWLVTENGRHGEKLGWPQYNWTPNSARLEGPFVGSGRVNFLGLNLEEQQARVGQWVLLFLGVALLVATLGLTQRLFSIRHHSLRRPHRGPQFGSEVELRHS

Molecule: bFGF-K55M (from UniProt P09038-2) (ligand)
FGF-Rc Comp. (ED50 analog / ED50 wild type FGF) [1]: 0.4 | FGF-Rc Comp. (ED50 analog / ED50 wild type FGF) [2]: 0.4

Molecule: bFGF-K119S (from UniProt P09038-2) (ligand)
3T3 Mito., 1 ug/ml heparin (ED50 wild type / ED50 analog x 100%) (% of wild type) [3]: 250 | 3T3 Mito., no heparin (ED50 wild type / ED50 analog x 100%) (% of wild type) [3]: 48 | FGF-Rc Comp. (ED50 analog / ED50 wild type FGF) [1]: 0.35 | FGF-Rc Comp. (ED50 analog / ED50 wild type FGF) [2]: 0.25

Molecule: bFGF-K128E (from UniProt P09038-2) (ligand)
3T3 Mito., 1 ug/ml heparin (ED50 wild type / ED50 analog x 100%) (% of wild type) [3]: 140 | 3T3 Mito., no heparin (ED50 wild type / ED50 analog x 100%) (% of wild type) [3]: 200

Molecule: bFGF-R31S (from UniProt P09038-2) (ligand)
3T3 Mito., 1 ug/ml heparin (ED50 wild type / ED50 analog x 100%) (% of wild type) [3]: 100 | 3T3 Mito., no heparin (ED50 wild type / ED50 analog x 100%) (% of wild type) [3]: 100 | FGF-Rc Comp. (ED50 analog / ED50 wild type FGF) [1]: 1 | FGF-Rc Comp. (ED50 analog / ED50 wild type FGF) [2]: 0.8

Molecule: bFGF-R48A (from UniProt P09038) (ligand)
ACE Mito., 1 ug/ml heparin (ED50 wild type / ED50 analog x 100%) (% of wild type) [4]: 84.2 | ACE Mito., no heparin (ED50 wild type / ED50 analog x 100%) (% of wild type) [4]: 8.9 | FGF-Rc Comp. (ED50 analog / ED50 wild type FGF) [1]: 0.32 | FGF-Rc Comp. (ED50 analog / ED50 wild type FGF) [2]: 0.3

Molecule: bFGF-R48L (from UniProt P09038) (ligand)
ACE Mito., no heparin (ED50 wild type / ED50 analog x 100%) (% of wild type) [4]: 1.7 | FGF-Rc Comp. (ED50 analog / ED50 wild type FGF) [1]: 0.16 | FGF-Rc Comp. (ED50 analog / ED50 wild type FGF) [2]: 2

Molecule: bFGF-R53L (from UniProt P09038-2) (ligand)
FGF-Rc Comp. (ED50 analog / ED50 wild type FGF) [1]: 0.22 | FGF-Rc Comp. (ED50 analog / ED50 wild type FGF) [2]: 0.25

Molecule: bFGF-R90T (from UniProt P09038-2) (ligand)
3T3 Mito., 1 ug/ml heparin (ED50 wild type / ED50 analog x 100%) (% of wild type) [3]: 216 | 3T3 Mito., no heparin (ED50 wild type / ED50 analog x 100%) (% of wild type) [3]: 77 | FGF-Rc Comp. (ED50 analog / ED50 wild type FGF) [1]: 0.6 | FGF-Rc Comp. (ED50 analog / ED50 wild type FGF) [2]: 0.5

Molecule: bFGF-R106L (from UniProt P09038-2) (ligand)
3T3 Mito., 1 ug/ml heparin (ED50 wild type / ED50 analog x 100%) (% of wild type) [3]: 200 | 3T3 Mito., no heparin (ED50 wild type / ED50 analog x 100%) (% of wild type) [3]: 20 | FGF-Rc Comp. (ED50 analog / ED50 wild type FGF) [1]: 0.3 | FGF-Rc Comp. (ED50 analog / ED50 wild type FGF) [2]: 0.13

Molecule: bFGF-R129T (from UniProt P09038-2) (ligand)
3T3 Mito., 1 ug/ml heparin (ED50 wild type / ED50 analog x 100%) (% of wild type) [3]: 190 | 3T3 Mito., no heparin (ED50 wild type / ED50 analog x 100%) (% of wild type) [3]: 87 | FGF-Rc Comp. (ED50 analog / ED50 wild type FGF) [1]: 1.3 | FGF-Rc Comp. (ED50 analog / ED50 wild type FGF) [2]: 0.5

Molecule: bFGF-V52K (from UniProt P09038-2) (ligand)
FGF-Rc Comp. (ED50 analog / ED50 wild type FGF) [1]: 0.5 | FGF-Rc Comp. (ED50 analog / ED50 wild type FGF) [2]: 0.4

B1: bFGF-C34/78/96/101S (ligand)
chain: MAAGSITTLPALPEDGGSGAFPPGHFKDPKRLYSKNGGFFLRIHPDGRVDGVREKSDPHIKLQLQAEERGVVSIKGVSANRYLAMKEDGRLLASKSVTDESFFFERLESNNYNTYRSRKYTSWYVALKRTGQYKLGSKTGPGQKAILFLPMSAKS
ACE Mito., 1 ug/ml heparin (ED50 wild type / ED50 analog x 100%) [5]: 119 % of wild type | ACE Mito., no heparin (ED50 wild type / ED50 analog x 100%) [5]: 7 % of wild type | FGF-Rc Comp. (ED50 analog / ED50 wild type FGF) [1]: 1 | FGF-Rc Comp. (ED50 analog / ED50 wild type FGF) [2]: 0.5

Second part, the molecule after the results:

3T3 Mito., no heparin (ED50 wild type / ED50 analog x 100%) (% of wild type) [3]: 210 | FGF-Rc Comp. (ED50 analog / ED50 wild type FGF) [1]: 0.3 | FGF-Rc Comp. (ED50 analog / ED50 wild type FGF) [2]: 0.25
Molecule: bFGF-K128S (from UniProt P09038-2) (ligand)

3T3 Mito., no heparin (ED50 wild type / ED50 analog x 100%) (% of wild type) [3]: 160 | FGF-Rc Comp. (ED50 analog / ED50 wild type FGF) [1]: 1 | FGF-Rc Comp. (ED50 analog / ED50 wild type FGF) [2]: 1
Molecule: bFGF-N113S (from UniProt P09038-2) (ligand)

3T3 Mito., 1 ug/ml heparin (ED50 wild type / ED50 analog x 100%) (% of wild type) [3]: 300 | 3T3 Mito., no heparin (ED50 wild type / ED50 analog x 100%) (% of wild type) [3]: 50 | FGF-Rc Comp. (ED50 analog / ED50 wild type FGF) [1]: 0.2
Molecule: bFGF-R116T (from UniProt P09038-2) (ligand)

ACE Mito., no heparin (ED50 wild type / ED50 analog x 100%) (% of wild type) [4]: 1.8 | FGF-Rc Comp. (ED50 analog / ED50 wild type FGF) [1]: 0.5 | FGF-Rc Comp. (ED50 analog / ED50 wild type FGF) [2]: 0.4
Molecule: bFGF-R118L (from UniProt P09038) (ligand)

3T3 Mito., 1 ug/ml heparin (ED50 wild type / ED50 analog x 100%) (% of wild type) [3]: 0.2 | 3T3 Mito., no heparin (ED50 wild type / ED50 analog x 100%) (% of wild type) [3]: 0.2 | FGF-Rc Comp. (ED50 analog / ED50 wild type FGF) [1]: 100 | FGF-Rc Comp. (ED50 analog / ED50 wild type FGF) [2]: 100
Molecule: bFGF-Y112A (from UniProt P09038-2) (ligand)

3T3 Mito., 1 ug/ml heparin (ED50 wild type / ED50 analog x 100%) (% of wild type) [3]: 25 | 3T3 Mito., no heparin (ED50 wild type / ED50 analog x 100%) (% of wild type) [3]: 5 | FGF-Rc Comp. (ED50 analog / ED50 wild type FGF) [1]: 0.5
Molecule: human acidic FGF (from UniProt P05230) (ligand)

ACE Mito., 1 ug/ml heparin (ED50 wild type / ED50 analog x 100%) [5]: 125 % of wild type | ACE Mito., no heparin (ED50 wild type / ED50 analog x 100%) [5]: 23 % of wild type
B2: bFGF-C78/96/101S (ligand)
chain: B1 chain with S34C
